Experimental data as given in patent publication US20240336672A1.

B1: CT-P59 (parental IgG1 version) (antibody, V domains shown)
VH: QITLKESGPTLVKPTQTLTLTCSFSGFSLSTSGVGVGWIRQPPGKALEWLALIDWDDNKYHTTSLKTRLTISKDTSKNQVVLTMTNMDPVDTATYYCARIPGFLRYRNRYYYYGMDVWGQGTTVTVSS
VL: ELVLTQPPSVSAAPGQKVTISCSGSSSNIGNNYVSWYQQLPGTAPKLLIYDNNKRPSGIPDRFSGSKSGTSATLGITGLQTGDEADYYCGTWDSSLSAGVFGGGTELTVL
B2: REG (antibody)
heavy chain variable region (VH): B1 VH
light chain variable region (VL): B1 VL

Legend:
Details in all cases: remark: other sources report otherwise
[1] = molecular target: T1, SARS-CoV-2 delta variant B.1.617.2/3 RBD domain (SARS-CoV-2); assay: ELISA; parameters: unit not given beside the values
[2] = molecular target: SARS-CoV-2 RBD (P.1) domain (SARS-CoV-2); assay: ELISA; parameters: unit not given beside the values
[3] = molecular target: SARS-CoV-2 RBD (B.1.351) domain (SARS-CoV-2); assay: ELISA; parameters: unit not given beside the values
[4] = molecular target: SARS-CoV-2 RBD (B.1.1.7) domain (SARS-CoV-2); assay: ELISA; parameters: unit not given beside the values
[5] = molecular target: SARS-CoV-2 delta plus variant RBD (SARS-CoV-2); assay: ELISA; parameters: unit not given beside the values
[6] = molecular target: T2, SARS-CoV-2 kappa variant B.1.617.1/3 RBD domain (SARS-CoV-2); assay: ELISA; parameters: unit not given beside the values
[7] = molecular target: T1, SARS-CoV-2 delta variant B.1.617.2/3 …; assay: RBD/ACE2 blocking ELISA
[8] = molecular target: SARS-CoV-2 RBD (P.1) domain (SARS-CoV-2); assay: RBD/ACE2 blocking ELISA
[9] = molecular target: SARS-CoV-2 RBD (B.1.351) domain (SARS-CoV-2); assay: RBD/ACE2 blocking ELISA
[10] = molecular target: SARS-CoV-2 RBD (B.1.1.7) domain (SARS-CoV-2); assay: RBD/ACE2 blocking ELISA
[11] = molecular target: SARS-CoV-2 delta plus variant RBD (SARS-CoV-2); assay: RBD/ACE2 blocking ELISA
[12] = molecular target: T2, SARS-CoV-2 kappa variant B.1.617.1/3 …; assay: RBD/ACE2 blocking ELISA
[13] = molecular target: T1, SARS-CoV-2 delta variant B.1.617.2/3 …; assay: ELISA
[14] = molecular target: SARS-CoV-2 RBD (P.1) domain (SARS-CoV-2); assay: ELISA
[15] = molecular target: SARS-CoV-2 RBD (B.1.1.7) domain (SARS-CoV-2); assay: ELISA
[16] = molecular target: T2, SARS-CoV-2 kappa variant B.1.617.1/3 …; assay: ELISA

Row | Binder | AUC [1] | AUC [2] | AUC [3] | AUC [4] | AUC [5] | AUC [6] | % binding inhibition [7] [%] | % binding inhibition [8] [%] | % binding inhibition [9] [%] | % binding inhibition [10] [%] | % binding inhibition [11] [%] | % binding inhibition [12] [%] | OD405nm [13] | OD405nm [14] | OD405nm [15] | OD405nm [16]
1 | B1 | 3 | 4 | 3 | 3 | 3 | 3 | 91 | 19 | 49 | 86 | 91 | 94 | – | – | – | –
2 | B2 | – | – | – | – | – | – | – | – | – | – | – | – | 3.4 | 3.6 | 3.2 | 3.5
